Experimental data published in patent publication US20220193251A1, “CD30 TARGETING ANTIBODY DRUG CONJUGATES AND USES THEREOF” (Ludwig-Maximilians-Universitaet Muenchen, priority 2020, published 2022).

How the values were obtained:
cathepsin B = cathepsin B (Homo sapiens, UniProt P07858); experiment: Digestion of vc payloads with protease cathepsin B, RP-HPLC; format: biochemical; details: cathepsin B 1:1000 for each vc moiety
Description: Prior to the conjugation with the antibody, payloads 2 and 3 have been analyzed for their susceptibility to cleavage by the protease cathepsin B (FIGS. 5A-5C).
FIGS. 5A-5C show in FIG. 5A an RP-HPLC analysis of the valine-citrulline (vc) containing payload 2 during digestion reaction with the protease cathepsin B (1:1000 for each vc moiety). Prior to analysis the reaction was stopped with E-64. The chromatogram after a reaction time of 150 min was recorded at 220 nm. […] During the reaction of payload 3 with cathepsin B an intermediate is formed (grey, triangle) which contains one MMAE moiety.

[1] = Storage of ADCs in mouse-plasma for 7 days at 37° C.; format: in vitro ADME; details: for DARav after plasma incubation n = 2 / Payload lost: mouse-plasma, 7 days at 37° C.
[2] = Repeated dose toxicity and toxicokinetic study in cynomolgus monkey; format: in vivo
Description: Clinical condition (incl. bodyweight, food consumption & clinical observations), clinical pathology and immunophenotyping (T, B and NK cells) was evaluated throughout the study, with frequent sampling for TK and anti-drug antibody determination. All animals were subject to full necropsy with detailed macroscopic observations.
Bodyweight is depicted in kilogram, lymphocytes in billion per liter, neutrophiles in billion per liter and white blood cells in billion per liter.

[3] = Repeated dose toxicity and toxicokinetics study in rats; format: in vivo, Sprague Dawley rats; details: for Glucose level: one ADC compared to the other
Description: Experiments were performed in accordance with animal welfare law and approved by local authorities. […] Clinical observations, body weight and food consumption were determined daily throughout the study. Pharmacokinetic samples were obtained prior to each dose, 15 minutes post each dose and at necropsy from each animal. All animals were necropsied, with organs weighed and retained in fixative. Clinical pathology (hematology, clinical chemistry and coagulation end-points) samples were also taken at necropsy.
Clinical observations, body weight and food consumption were determined daily throughout the study. Pharmacokinetic samples were obtained prior to each dose, 15 minutes post each dose and at necropsy from each animal. All animals were necropsied, with organs weighed and retained in fixative. Clinical pathology (hematology, clinical chemistry, and coagulation endpoints) samples were also taken at necropsy.
As reference, rats were dosed with a control (vehicle) (data not shown).

[4] = cynomolgus monkey, cited from earlier work
[5] = cynomolgus monkey, 6, 12 and 15 mg/kg
[6] = cynomolgus monkey, 6, 12 and 15 mg/kg repeated dose
[7] = rat, 10 mg/kg weekly, compared to the Brentuximab Tub-tag ADC

Row | Molecule | susceptibility to cleavage by cathepsin B, release of free MMAE (cathepsin B) | DAR before plasma incubation [1] | DARav after plasma incubation n = 2 [1] | Payload lost [1] [%] | Hematocrit ([3]; rat, 10 mg/kg weekly) | Hemoglobin levels ([3]; rat, 10 mg/kg weekly) | MMAE driven testes changes ([3]; rat, 10 mg/kg weekly) | Red blood cell count ([3]; rat, 10 mg/kg weekly) | Reticulocytes count ([3]; rat, 10 mg/kg weekly) | Glucose level ([3]; rat, 10 mg/kg weekly) | also measured
1 | CC[C@H](C)[C@H]([C@H](CC(=O)N1CCC[C@@H]1[C@@H](OC)[C@H](C)C(=O)N[C@@H](C)[C@H](O)c1ccccc1)OC)N(C)C(=O)[C@H](NC(O)[C@@H](C(C)C)N(C)C(=O)OCc1ccc(NC(=O)[C@@H](CCCNC(N)=O)NC(=O)[C@H](NC(=O)CON)C(C)C)cc1)C(C)C (stereo partly shown) [payload 2, HA-VC-PAB-MMAE] | cleaved by cathepsin B |  |  |  |  |  |  |  |  |  | 
2 | Bren. HC-2: Brentuximab with Tub-tag on heavy chains (SEQ ID NO: 2/12), 3-formyl-L-tyrosine, oxime-linked Payload 2 (vc-PAB-MMAE), DAR 2 |  | 2 | 1.8 | 10 |  |  |  |  |  |  | 
3 | Bren. LC-2: Brentuximab with Tub-tag on light chains (SEQ ID NO: 11/1), 3-formyl-L-tyrosine, oxime-linked Payload 2 (vc-PAB-MMAE), DAR 2 |  | 2 | 1.8 | 10 | no marked effect | no marked effect | delayed in onset | no marked effect | no effect | lower glucose levels | lymphocytes concentration and white blood cells concentration [2, 5]: No significant changes; reduction in neutrophiles in comparison to Brentuximab vedotin (3 mg/kg) [2, 5]: does not cause a higher amount of reduction in neutrophiles; clinical tolerability [2, 6]: clinically well tolerated; mortality, macroscopic and microscopic findings [2, 6]: no mortality and no macroscopic or sever microscopic findings; reductions in red blood cells, hemoglobin and neutrophils ([2]; cynomolgus monkey, at 12 & 15 mg/kg): relatively consistent to those observed with Adcetris at 3 mg/kg; overall safety profile in the rat ([3]; 10 mg/kg weekly): better safety profile compared to Brentuximab vedotin; serum concentrations after repeated doses ([3]; rat, 10 mg/kg i.v. at day 1, 8, 15 and 22): reasonable levels of serum concentrations; impact on red blood cell populations ([3]; rat, 10 mg/kg weekly): no impact on red blood cell populations
4 | Brentuximab vedotin: approved CD30 ADC: chimeric IgG1 brentuximab, Cathepsin B cleavable Valin-Citrulline linker, Monomethyl-Auristatin E; maleimide-linked, DARav 4 |  | 4.02 | 1.53 | 62 | reduces hematocrit (mainly in males) | reduces hemoglobin levels (mainly in males) | testes changes were observed | marked impact | marked impact | greater level of glucose | APTT [3, 7]: lower APTT values; Eosinophils counts [3, 7]: lower eosinophils counts; Testis weight [3, 7]: lower testis weight; Thymus weight [3, 7]: lower thymus weight; tolerability at 6 mg/kg ([4]; 6 mg/kg): poorly tolerated; MTD [4]: 3 mg/kg
5 | HA-(VC-PAB-MMAE)2 [payload 3] | cleaved by cathepsin B |  |  |  |  |  |  |  |  |  | 
